Experimental data published in paper PMC3075949.

What was measured:
[1] = biological target: Rh gH/gL-YFPC (rhesus lymphocryptovirus (Rh-LCV)); test: split reporter
[2] = biological target: EBV gH/gL-YFPC (Epstein-Barr virus (EBV)) (UniProt P03231); test: split reporter

In the case of “EBV gB-YFPN (from UniProt P03188 22-857) (natural protein)”, the % YFP cells of cells stained for gB and gH/gL [1] is reported as 68%.

“EBV/Rh (456-628) gB-YFPN (from UniProt P03188 22-450; P03188 624-857)” was tested, and the % YFP cells of cells stained for gB and gH/gL [2] was 93% and the % YFP cells of cells stained for gB and gH/gL [1] was 72%.

Work on “EBV/Rh (456-807) gB-YFPN (from UniProt P03188 22-450; P03188 801-857)” yielded a % YFP cells of cells stained for gB and gH/gL [1] of 79%.

Substance “EBV/Rh (628-807) gB-YFPN (from UniProt P03188 22-622; P03188 801-857)” has a % YFP cells of cells stained for gB and gH/gL [1] of 59%.
